Measurements: patent US20140206847A1 (PANASONIC, published 2014)

Target: T1, Troponin I derived from human myocardium (human, UniProt P19429 2-210)
T1 construct: Bought protein, fixed on a CM5 chip at approximately 500 RU; also called Troponin I (purchased from Funakoshi)
Test: SPR, Biacore T100; troponin I fixed on CM5 chip, measured similarly to the mutant protein; column head 'Association Rate Ka(M^-1)'
Procedure: Using an intermolecular interaction analyzer Biacore T100 (purchased from GE health care company), the association rate of the mutant protein was measured in accordance with the manual attached to the intermolecular interaction analyzer Biacore T100.
More particularly, Troponin I (purchased from Funakoshi) derived from human myocardium having approximately 500 RU (Resonance Unit) was fixed on a CM5 chip (purchased from GE health care company). This CM5 chip was set in the Biacore T100. Then, aqueous solutions (concentration: 100 nM, 50 nM, 25 nM, 12.5 nM, and 6.25 nM, volume: 150 microliters) containing the purified mutant protein was flowed through the Biacore T100 to measure the association rate of the mutant protein.

T1 sequence (P19429 2-210 limits assumed): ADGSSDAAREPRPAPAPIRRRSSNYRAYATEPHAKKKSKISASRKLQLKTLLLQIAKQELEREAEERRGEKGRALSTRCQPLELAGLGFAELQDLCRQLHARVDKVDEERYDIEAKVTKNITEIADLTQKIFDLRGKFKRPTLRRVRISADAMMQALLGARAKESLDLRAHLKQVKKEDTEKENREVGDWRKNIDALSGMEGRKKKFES

B1: First mutant scFv antibody fragment (scFv)
scFv: DVVLTQSPLTLSVTIGQPASISCKSSQSLLDSDGKTYLNWLLQRPGQSPKRLIYLVSKLDSGVPDRFTGSGSGTDFTLKISRVEAEDLGVYYCWQGTHFPLTFGAGTKLEIKRGGGGSGGGGSGGGGSQLQLQQSGAELVRSGASVKLSCTASGFNIKDYYMNWVKQRPEQGLEWIGWIDPANGDTAYAPRFQVKADMTADKDSDTAYLQLSSLTSEDTAVYYCNADLPMDQWGQGTSVTVSSAAALESFNRNEC
notes: also called first mutant scFv antibody fragment 51; mutant first scFv antibody fragment
  Ka: 5.11e+09 M⁻¹
